# Experimental data from paper PMC11093223 (2024).
# T1: SLAMF7 (Homo sapiens (Human), UniProt Q9NQ25)
# T1 chain: EDPANTVYSTVE
# T2: FAM174C (Homo sapiens (Human), UniProt Q9BVV8)
# T2 chain: DSDEETVFES
# T3: CIMPR (Homo sapiens (Human), UniProt P11717)
# T3 chain: EEETDENETEWLM
# T4: KIAA0319 (Homo sapiens (Human), UniProt Q5VV43)
# T4 chain: ESEFDSDQDTIF
# T5: NPDC1 (Homo sapiens (Human), UniProt Q9NQX5)
# T5 chain: DEENEDGDFTVYEC
# T6: CPD (Homo sapiens (Human), UniProt O75976)
# T6 chain: EEETLYSSKH
# B1: TBC1D23 (protein)
# chain: DRKEVVNIQTWINKPDIKHHFPCKEVKESGHMFPSHLLVTATHMYCLREILSRKGLAYIQSRQALNSVVKITSKKKHPELITFKYGNSSASGIEILAIERYLIPNAGDATRAIKQQIMKVLDALES
# Legend:
# Assay in all cases: ITC
# [1] = target: T1, SLAMF7
# [2] = target: T2, FAM174C
# [3] = target: T3, CIMPR
# [4] = target: T4, KIAA0319
# [5] = target: T5, NPDC1
# [6] = target: T6, CPD
binder,measurement,setting,value
B1,Kd,[1],> 100 µM
same,Kd,[2],15.7 µM
same,Kd,[3],> 100 µM
same,Kd,[4],35.2 µM
same,Kd,[5],2.9 µM
same,Kd,[6],10.6 µM
